What was measured:
[1] = target: T1, HLA-A24 molecule on the cell surface (HLA-A*2402) (human); experiment: not clear: FIG. 7 has no binding assay panel
T1 construct: also called HLA-A24 antigen

[2] = target: T1, HLA-A24 molecule on the cell surface …; experiment: HLA-A24 stabilisation assay on T2-A24 cells, flow cytometry with C7709A2
Experimental: T2-A24 cells, which are HLA-A24-expressing T2 cells, were preincubated in a CO₂ incubator at 27° C. overnight. The cells collected were resuspended in Opti-MEM and plated on a round bottom 96 well plate (Corning) with about 1×10⁵ cells/200 μL per well. A subject peptide was added at concentrations of 0.33 μM, 1 μM, and 10 μM, and incubation was carried out in a CO₂ incubator at 27° C. for 3 hours and subsequently at 37° C. for 2.5 hours. Subsequently, the cells were subjected to centrifugation (380 g, 5 minutes) as they were on the plate, resuspended in 100 μL of a C7709A2 monoclonal antibody-producing hybridoma culture supernatant, and incubated on ice for 45 to 60 minutes. The cells were washed with ice-cooled PBS and then incubated together with an FITC-conjugated goat anti-mouse IgG antibody (KPL, Gaithersburg, Md.) on ice for 30 minutes.

Binder	binding result [1]	binding result [2]
IFQGNVHNF (Synthetic peptide) [SNRNP40-derived natural peptide of SEQ ID No: 4 (IFQGNVHNF)]	binds	–
RYGNVSHF (Synthetic peptide; also called RF8) [SUV39H2-derived natural antigen peptide of SEQ ID No: 2 (RYGNVSHF)]	–	binds
HWNDTRPAHF (also called HF10) [PVT1-derived natural antigen peptide of SEQ ID No: 1 (HWNDTRPAHF)]	–	binds

— patent US20190117751A1 (SAPPORO MEDICAL UNIVERSITY, published 2019)
